Data taken from article PMC9023283.

Molecular target: mature METTL8-Iso1 (Met1-Gln22 deleted) with a C-terminal His6 tag (human)
Experiment: SEC

In the case of “mature METTL8-Iso1 (Met1-Gln22 deleted) with a C-terminal His6 tag (enzyme)”, the stoichiometry N was 8.
